Like-named read-outs stand apart in the source and are kept apart here. One block for each substance: values may come before it.
Assays:
[1] = target: Human Enolase 241cit peptide as offered to human PBMCs (human)
[2] = target: Human Enolase 241 wt peptide as offered to human PBMCs (human)
[3] = target: Mouse Enolase 241-260 citrullinated peptide presented by HLA-DR4 (mouse; human)
[4] = target: Human Enolase 241cit peptide as offered to human PBMCs (human); remark: listed apart in the source

Thymidine proliferation assay, proliferation index (proliferation index) [1]: 28.6
Thymidine proliferation assay, proliferation index (proliferation index) [2]: 1.2
Substance: PBMCs of healthy donor 1 (cells without a defined receptor)

IFNγ Elispot (/million splenocytes) [3]: 180
Substance: Splenocytes of HLA-DR4 transgenic mice immunised with a DNA construct encoding mouse enolase (cells without a defined receptor)

Thymidine proliferation assay, proliferation index (proliferation index) [4]: 28
Substance: PBMCs of healthy donor 4 (cells without a defined receptor)

Thymidine proliferation assay, proliferation index (proliferation index) [1]: 2.7
Substance: PBMCs of healthy donor 2 (cells without a defined receptor)
